Test results taken from patent US6441131B1, “Peptides, method for assaying human pepsinogen II or human pepsin II, and assaying kit” (Ono Pharmaceutical Co., Ltd., priority 1997, dated 2002).
Non-standard residues stand in square brackets, D forms with d. No end group written: not given here. *: point of attachment. Phe(4-Cl) = N[C@@H](Cc1ccc(Cl)cc1)C(=O)O; Phe(4-I) = N[C@@H](Cc1ccc(I)cc1)C(=O)O; 2Nal = N[C@@H](Cc1ccc2ccccc2c1)C(=O)O; pNA = O=[N+]([O-])c1ccc(N*)cc1; Nva = CCC[C@H](N)C(=O)O

molecular target: T1, human pepsin II (Homo sapiens, UniProt P20142); assay: Digesting of the peptide substrate by human pepsin II (assay by HPLC); format: biochemical; conditions: calculated from the HPLC digesting rates, pepsin II over pepsin I
T1 sequence (P20142 60-388): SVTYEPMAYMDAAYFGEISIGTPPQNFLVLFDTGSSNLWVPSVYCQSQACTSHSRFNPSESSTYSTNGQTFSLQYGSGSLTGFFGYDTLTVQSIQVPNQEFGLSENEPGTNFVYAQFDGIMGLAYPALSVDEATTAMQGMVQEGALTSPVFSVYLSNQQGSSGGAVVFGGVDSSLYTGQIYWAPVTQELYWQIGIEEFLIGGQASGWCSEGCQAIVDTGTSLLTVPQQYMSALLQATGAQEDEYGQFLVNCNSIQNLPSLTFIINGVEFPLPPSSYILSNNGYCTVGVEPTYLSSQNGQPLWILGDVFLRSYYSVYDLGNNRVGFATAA
Experimental: (§1) Tartaric acid buffer or glycine buffer (pH2.0) containing each peptide (0.5 mM) prepared in Examples 1 and 2(3) etc. (Examples in Table 3 described hereinafter).
(§2) An aqueous solution of human pepsin I or human pepsin II (0.01 mg/ml)
(§3) Enzyme solution I (0.1 ml) was added to Reagent (1.0 ml). After incubation of the mixture at 37° C. for 10, 30, 60 minutes, the mixture solution (0.3 ml) was collected. To the collected solution, 2N-NaOH (0.025 ml) was added to terminate the reaction. After addition of 2N-HCl (0.025 ml) to the mixture, protein was removed by the ultrafiltration. The assaying the amino acid derivatives of the formula (II-A) [drawing 19]
(§4) which was released after digesting by human pepsin in the obtained solution was carried out by HPLC using C18 column. The ratio of digesting rate of pepsin II/pepsin I was calculated according to the result from assay by HPLC. Such assay is carried out to confirm that a substrate was digested by pepsin I or pepsin II correctly and that the amino acid derivatives of the formula (II-A) were released.

First: 2(3): Q=Pro Gln Gln Ala; 4-I-Phenyl; R4=H; (EE)m single bond; Z=p-NA (PQQA[Phe(4-I)]G-pNA; also: TFA salt)
Second: 2(7): Q=Pro Gln Gln Ala; 4-Cl-Phenyl; R4=Me; (EE)m single bond; Z=p-NA (PQQA[Phe(4-Cl)]A-pNA; also: TFA salt)
The “ration of digesting rate (pepsin II/ pepsin I)” value (shortened to “ration of digesting rate”) of the first is higher: 2065.1 for the first, 104.4 for the second.

Going from “2(11): Q=Pro Gln Gln Ala; 2-Naphthyl; R4=n-Pr; (EE)m single bond; Z=p-NA (PQQA[2Nal][Nva]-pNA; also: TFA salt)” to “2(14): Q=Ac Lys Pro Gln Gln Ala; 4-I-Phenyl; R4=Me; (EE)m single bond; Z=p-NA (Ac-KPQQA[Phe(4-I)]A-pNA; also: TFA salt)”, the “ration of digesting rate” value rises from 174.9 to 410.2.

First: 2(16): Q=Asn Pro Gln Gln Ala; 4-I-Phenyl; R4=Me; (EE)m single bond; Z=p-NA (NPQQA[Phe(4-I)]A-pNA; also: TFA salt)
Second: 2(18): Q=Ala Pro Gln Gln Ala; 4-I-Phenyl; R4=Me; (EE)m single bond; Z=p-NA (APQQA[Phe(4-I)]A-pNA; also: TFA salt)
The “ration of digesting rate” value of the first is higher: 1094.8 for the first, 757.0 for the second.

Going from “2(22): Q=Pro Gln Gln Asn; 2-Naphthyl; R4=Me; (EE)m single bond; Z=p-NA (PQQN[2Nal]A-pNA; not fully specified)” to “2(23): Q=Pro Gln Gln Gln; 2-Naphthyl; R4=Me; (EE)m single bond; Z=p-NA (PQQQ[2Nal]A-pNA; also: TFA salt)”, the “ration of digesting rate” value rises from 222.6 to 308.8.

First: 2(24): Q=Pro Gln Gln Gly; 2-Naphthyl; R4=Me; (EE)m single bond; Z=p-NA (PQQG[2Nal]A-pNA; also: TFA salt)
Second: 2(25): Q=Pro Gln Gln Met; 2-Naphthyl; R4=Me; (EE)m single bond; Z=p-NA (PQQM[2Nal]A-pNA; also: TFA salt)
The “ration of digesting rate” value of the first is higher: 2081.6 for the first, 889.7 for the second.

First: 2(33): Q=Pro Gln Glu Glu; 2-Naphthyl; R4=Me; (EE)m single bond; Z=p-NA (PQEE[2Nal]A-pNA; also: TFMSA salt)
Second: 2(34): Q=Pro Gln Asp Glu; 2-Naphthyl; R4=Me; (EE)m single bond; Z=p-NA (PQDE[2Nal]A-pNA; also: TFMSA salt)
The “ration of digesting rate” value of the first is lower: 402.3 for the first, 711.9 for the second.

same assay, conditions: peptide 0.5 mM, tartaric acid or glycine buffer pH2.0, 37° C., released amino acid derivative (II-A) by HPLC

First: 2(3): Q=Pro Gln Gln Ala; 4-I-Phenyl; R4=H; (EE)m single bond; Z=p-NA (PQQA[Phe(4-I)]G-pNA; also: TFA salt)
Second: 2(7): Q=Pro Gln Gln Ala; 4-Cl-Phenyl; R4=Me; (EE)m single bond; Z=p-NA (PQQA[Phe(4-Cl)]A-pNA; also: TFA salt)
The “pepsin II digesting rate” value of the first is higher: 4.23 μM/min · 1 μg Enz for the first, 3.50 μM/min · 1 μg Enz for the second.

Going from “2(11): Q=Pro Gln Gln Ala; 2-Naphthyl; R4=n-Pr; (EE)m single bond; Z=p-NA (PQQA[2Nal][Nva]-pNA; also: TFA salt)” to “2(14): Q=Ac Lys Pro Gln Gln Ala; 4-I-Phenyl; R4=Me; (EE)m single bond; Z=p-NA (Ac-KPQQA[Phe(4-I)]A-pNA; also: TFA salt)”, the “pepsin II digesting rate” value falls from 4.10 μM/min · 1 μg Enz to 3.85 μM/min · 1 μg Enz.

Going from “2(16): Q=Asn Pro Gln Gln Ala; 4-I-Phenyl; R4=Me; (EE)m single bond; Z=p-NA (NPQQA[Phe(4-I)]A-pNA; also: TFA salt)” to “2(18): Q=Ala Pro Gln Gln Ala; 4-I-Phenyl; R4=Me; (EE)m single bond; Z=p-NA (APQQA[Phe(4-I)]A-pNA; also: TFA salt)”, the “pepsin II digesting rate” value rises from 8.95 μM/min · 1 μg Enz to 9.20 μM/min · 1 μg Enz.

Going from “2(22): Q=Pro Gln Gln Asn; 2-Naphthyl; R4=Me; (EE)m single bond; Z=p-NA (PQQN[2Nal]A-pNA; not fully specified)” to “2(23): Q=Pro Gln Gln Gln; 2-Naphthyl; R4=Me; (EE)m single bond; Z=p-NA (PQQQ[2Nal]A-pNA; also: TFA salt)”, the “pepsin II digesting rate” value falls from 12.87 μM/min · 1 μg Enz to 5.90 μM/min · 1 μg Enz.

Compared with “2(24): Q=Pro Gln Gln Gly; 2-Naphthyl; R4=Me; (EE)m single bond; Z=p-NA (PQQG[2Nal]A-pNA; also: TFA salt)”, “2(25): Q=Pro Gln Gln Met; 2-Naphthyl; R4=Me; (EE)m single bond; Z=p-NA (PQQM[2Nal]A-pNA; also: TFA salt)” is lower in “pepsin II digesting rate” value: 12.06 μM/min · 1 μg Enz for the first, 5.56 μM/min · 1 μg Enz for the second.

Compared with “2(33): Q=Pro Gln Glu Glu; 2-Naphthyl; R4=Me; (EE)m single bond; Z=p-NA (PQEE[2Nal]A-pNA; also: TFMSA salt)”, “2(34): Q=Pro Gln Asp Glu; 2-Naphthyl; R4=Me; (EE)m single bond; Z=p-NA (PQDE[2Nal]A-pNA; also: TFMSA salt)” is lower in “pepsin II digesting rate” value: 25.41 μM/min · 1 μg Enz for the first, 15.40 μM/min · 1 μg Enz for the second.

molecular target: human pepsin I (Homo sapiens, UniProt P0DJD7); assay: Digesting of the peptide substrate by human pepsin I (assay by HPLC); format: biochemical; conditions: peptide 0.5 mM, tartaric acid or glycine buffer pH2.0, 37° C., released amino acid derivative (II-A) by HPLC
Experimental: as §1, §2, §3, §4

Sequence of human pepsin I (P0DJD7 63-388): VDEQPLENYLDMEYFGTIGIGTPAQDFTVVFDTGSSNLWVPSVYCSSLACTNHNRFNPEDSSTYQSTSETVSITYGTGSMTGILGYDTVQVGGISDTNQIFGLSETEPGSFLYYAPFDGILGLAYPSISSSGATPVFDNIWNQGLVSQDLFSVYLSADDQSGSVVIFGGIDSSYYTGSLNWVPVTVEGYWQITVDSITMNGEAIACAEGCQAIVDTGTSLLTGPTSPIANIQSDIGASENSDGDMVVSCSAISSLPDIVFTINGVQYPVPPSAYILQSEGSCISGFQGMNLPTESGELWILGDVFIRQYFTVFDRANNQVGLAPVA

Compared with “2(3): Q=Pro Gln Gln Ala; 4-I-Phenyl; R4=H; (EE)m single bond; Z=p-NA (PQQA[Phe(4-I)]G-pNA; also: TFA salt)”, “2(7): Q=Pro Gln Gln Ala; 4-Cl-Phenyl; R4=Me; (EE)m single bond; Z=p-NA (PQQA[Phe(4-Cl)]A-pNA; also: TFA salt)” is higher in “pepsin I digesting rate” value: 0.0020 μM/min · 1 μg Enz for the first, 0.0335 μM/min · 1 μg Enz for the second.

First: 2(11): Q=Pro Gln Gln Ala; 2-Naphthyl; R4=n-Pr; (EE)m single bond; Z=p-NA (PQQA[2Nal][Nva]-pNA; also: TFA salt)
Second: 2(14): Q=Ac Lys Pro Gln Gln Ala; 4-I-Phenyl; R4=Me; (EE)m single bond; Z=p-NA (Ac-KPQQA[Phe(4-I)]A-pNA; also: TFA salt)
The “pepsin I digesting rate” value of the first is higher: 0.0235 μM/min · 1 μg Enz for the first, 0.0094 μM/min · 1 μg Enz for the second.

Compared with “2(16): Q=Asn Pro Gln Gln Ala; 4-I-Phenyl; R4=Me; (EE)m single bond; Z=p-NA (NPQQA[Phe(4-I)]A-pNA; also: TFA salt)”, “2(18): Q=Ala Pro Gln Gln Ala; 4-I-Phenyl; R4=Me; (EE)m single bond; Z=p-NA (APQQA[Phe(4-I)]A-pNA; also: TFA salt)” is higher in “pepsin I digesting rate” value: 0.0082 μM/min · 1 μg Enz for the first, 0.0122 μM/min · 1 μg Enz for the second.

Going from “2(22): Q=Pro Gln Gln Asn; 2-Naphthyl; R4=Me; (EE)m single bond; Z=p-NA (PQQN[2Nal]A-pNA; not fully specified)” to “2(23): Q=Pro Gln Gln Gln; 2-Naphthyl; R4=Me; (EE)m single bond; Z=p-NA (PQQQ[2Nal]A-pNA; also: TFA salt)”, the “pepsin I digesting rate” value falls from 0.0578 μM/min · 1 μg Enz to 0.0191 μM/min · 1 μg Enz.

Going from “2(24): Q=Pro Gln Gln Gly; 2-Naphthyl; R4=Me; (EE)m single bond; Z=p-NA (PQQG[2Nal]A-pNA; also: TFA salt)” to “2(25): Q=Pro Gln Gln Met; 2-Naphthyl; R4=Me; (EE)m single bond; Z=p-NA (PQQM[2Nal]A-pNA; also: TFA salt)”, the “pepsin I digesting rate” value rises from 0.0058 μM/min · 1 μg Enz to 0.0063 μM/min · 1 μg Enz.

Going from “2(33): Q=Pro Gln Glu Glu; 2-Naphthyl; R4=Me; (EE)m single bond; Z=p-NA (PQEE[2Nal]A-pNA; also: TFMSA salt)” to “2(34): Q=Pro Gln Asp Glu; 2-Naphthyl; R4=Me; (EE)m single bond; Z=p-NA (PQDE[2Nal]A-pNA; also: TFMSA salt)”, the “pepsin I digesting rate” value falls from 0.0632 μM/min · 1 μg Enz to 0.0216 μM/min · 1 μg Enz.
